Results as given in patent US20170233485A1 (Biogen, published 2017).
Where “and” joins values, the source holds several entries; their conditions need not be identical. Equal entries are not always repeated.

Columns and labels:
[1] = target: T1, human CD40 (cell surface) (human, UniProt P25942 20-277); experiment: cell-based or functional assay
[2] = target: T1, human CD40 (cell surface); experiment: FACS, A647-conjugated mAb on primary B cells in human whole blood
[3] = target: T2, mouse CD40 (cell surface) (mouse, UniProt P27512 20-289); experiment: flow cytometry on 293E transfected cells
T2 construct: whole, on cells; also called murine CD40
T2 sequence (looked up): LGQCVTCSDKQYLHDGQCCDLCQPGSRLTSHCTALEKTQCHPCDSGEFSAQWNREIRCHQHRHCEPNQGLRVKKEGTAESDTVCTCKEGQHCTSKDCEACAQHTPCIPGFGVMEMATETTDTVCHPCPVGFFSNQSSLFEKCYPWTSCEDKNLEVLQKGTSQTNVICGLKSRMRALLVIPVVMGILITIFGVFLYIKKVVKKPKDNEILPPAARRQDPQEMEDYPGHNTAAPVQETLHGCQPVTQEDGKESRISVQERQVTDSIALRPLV

[4] = target: T3, human C1q (human, UniProt P02745 23-245; P02746 28-253; P02747 29-245); experiment: ELISA, titrated antibody coated, human C1q detected
T3 construct: the three subunits are from general knowledge; also called Complement protein C1q
Protocol: It was also determined that Exemplary Anti-CD40 Antibody 1 is not capable of activating complement by testing its binding to C1q. The assay (adapted from Idusogie et al., J. Immunol., 164:4178-84 (2000)) was conducted in an ELISA format where titrations of the test antibodies are coated in the wells and binding of human C1q is detected with chicken IgY anti-human C1q (custom reagent from Ayes Labs) followed by a donkey F(ab′) 2 anti-chicken IgY HRP conjugate.

[5] = target: T4, human CD40 H78Q, full length, on 293E cells (human, UniProt P25942 20-277); experiment: binding to CD40 SNP variants expressed on 293E cells (data not shown)
T4 construct: also called CN916
Description: The prevalence of these SNPs is quite rare, believed to be at or below the 3% range. Exemplary Anti-CD40 Antibody 1 bound to 6 of the CD40 proteins encoded by DNA sequences containing SNPs comparably to WT CD40, but more weakly to H78Q and R90W (reduced plateau) and not quantifiably to C77F (data not shown).

[6] = target: T5, human FcγR CD16a V158-GST fusion protein (human, UniProt P08637 17-208, limits assumed); experiment: ALPHAscreen competition: test antibody displaces biotinylated IgG1 from FcγR-GST
T5 construct: FcγR-GST fusion protein on anti-GST acceptor beads; also called FcγRIIIA; not shown: GST
Protocol: (§1) In order to confirm the expected reduced binding profile of Exemplary Anti-CD40 Antibody 1 to human FcγR, relative binding affinities were measured using Amplified Luminescent Proximity Homogeneous Assay (ALPHAscreen) technology from Perkin Elmer. With this technology, binding pairs are immobilized onto “donor” and “acceptor” beads. Upon laser excitation, donor beads release singlet oxygen that reacts with acceptor beads in close proximity (≦200 nm) generating a cascade of events that ultimately results in fluorescence emission at 520-620 nm.
(§2) The chimeric AKH3 antibody constructs with the human IgG1 and aglycosyl IgG4P/G1 Fc regions were included in the FcγR and C1q assays as Fc competent and Fc-effectorless comparators, respectively. The assay was performed in a competitive format in which binding of test antibodies to FcγR disrupts the interaction of biotinylated IgG1 and FcγR-GST fusion protein immobilized on Streptavidin donor beads and anti-GST acceptor beads respectively. The plates were read using an Envision plate reader (Perkin Elmer) and the resulting relative fluorescence units (RFU) were plotted versus the concentration of test IgG as shown in FIG. 26.

[7] = target: T6, human FcγR CD32a R131-GST fusion protein (human, UniProt P12318 34-217, limits assumed); experiment: as above
T6 construct: FcγR-GST fusion protein on anti-GST acceptor beads; also called FcγRIIa; not shown: GST
T6 sequence (looked up): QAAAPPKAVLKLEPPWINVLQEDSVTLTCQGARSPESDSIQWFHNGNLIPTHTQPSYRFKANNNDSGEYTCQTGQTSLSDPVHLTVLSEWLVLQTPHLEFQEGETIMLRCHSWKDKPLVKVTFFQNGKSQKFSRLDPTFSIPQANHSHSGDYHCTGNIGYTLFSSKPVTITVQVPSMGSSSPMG
Protocol: as §1, §2

[8] = target: T7, human FcγR CD32b-GST fusion protein (human, UniProt P31994 43-217, limits assumed); experiment: as above
T7 construct: FcγR-GST fusion protein on anti-GST acceptor beads; also called FcγRIIB; not shown: GST
T7 sequence (looked up): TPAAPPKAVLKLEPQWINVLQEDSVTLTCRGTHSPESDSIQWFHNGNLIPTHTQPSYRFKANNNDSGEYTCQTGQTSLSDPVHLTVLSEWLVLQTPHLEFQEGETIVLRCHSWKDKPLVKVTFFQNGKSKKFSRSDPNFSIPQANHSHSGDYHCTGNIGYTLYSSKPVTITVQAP
Protocol: as §1, §2

[9] = target: T8, human FcγR CD64-GST fusion protein (human, UniProt P12314 16-292, limits assumed); experiment: as above
T8 construct: FcγR-GST fusion protein on anti-GST acceptor beads; also called FcγRI; not shown: GST
Protocol: as §1, §2

T1 sequence (P25942 20-277 limits assumed): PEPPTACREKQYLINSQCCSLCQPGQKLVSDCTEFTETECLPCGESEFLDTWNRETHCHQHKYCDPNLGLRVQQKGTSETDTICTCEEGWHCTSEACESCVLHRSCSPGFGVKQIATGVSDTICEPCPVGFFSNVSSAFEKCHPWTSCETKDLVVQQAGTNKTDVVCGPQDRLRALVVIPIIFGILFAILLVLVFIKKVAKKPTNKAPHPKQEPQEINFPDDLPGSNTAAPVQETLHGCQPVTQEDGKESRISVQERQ
T8 sequence (P12314 16-292 limits assumed): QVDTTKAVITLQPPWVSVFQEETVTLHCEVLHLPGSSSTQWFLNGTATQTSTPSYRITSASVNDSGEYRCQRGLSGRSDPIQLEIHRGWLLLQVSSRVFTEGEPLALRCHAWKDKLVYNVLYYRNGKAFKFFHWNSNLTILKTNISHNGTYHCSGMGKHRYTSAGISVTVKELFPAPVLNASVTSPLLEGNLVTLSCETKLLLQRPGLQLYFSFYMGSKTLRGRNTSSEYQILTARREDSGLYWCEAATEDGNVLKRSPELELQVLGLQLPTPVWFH
T4 sequence (P25942 20-277 H78Q limits assumed): as the sequence (P25942 20-277 limits assumed) above, with H59Q counted along it
T5 sequence (P08637 17-208 F176V limits assumed): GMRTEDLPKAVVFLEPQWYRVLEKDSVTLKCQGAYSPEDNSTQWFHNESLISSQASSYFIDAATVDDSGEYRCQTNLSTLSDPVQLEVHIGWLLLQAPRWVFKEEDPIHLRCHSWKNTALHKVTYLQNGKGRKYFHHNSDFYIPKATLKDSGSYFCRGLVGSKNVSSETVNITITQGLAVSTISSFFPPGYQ
T3 sequence (P02745 23-245 limits assumed, chain 1 of 3): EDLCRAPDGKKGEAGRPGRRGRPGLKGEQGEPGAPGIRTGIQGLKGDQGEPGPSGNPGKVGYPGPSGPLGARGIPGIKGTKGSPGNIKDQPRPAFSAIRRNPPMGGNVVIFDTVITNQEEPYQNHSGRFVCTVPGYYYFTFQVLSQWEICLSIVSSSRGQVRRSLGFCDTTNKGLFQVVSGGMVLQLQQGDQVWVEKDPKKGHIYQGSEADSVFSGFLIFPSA
T3 sequence (P02746 28-253 limits assumed, chain 2 of 3): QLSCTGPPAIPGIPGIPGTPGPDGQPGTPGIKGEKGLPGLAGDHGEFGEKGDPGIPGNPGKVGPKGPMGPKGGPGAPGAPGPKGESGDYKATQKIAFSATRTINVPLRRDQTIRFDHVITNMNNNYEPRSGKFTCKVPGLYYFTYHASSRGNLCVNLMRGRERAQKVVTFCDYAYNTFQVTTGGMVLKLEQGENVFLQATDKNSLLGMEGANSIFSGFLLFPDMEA
T3 sequence (P02747 29-245 limits assumed, chain 3 of 3): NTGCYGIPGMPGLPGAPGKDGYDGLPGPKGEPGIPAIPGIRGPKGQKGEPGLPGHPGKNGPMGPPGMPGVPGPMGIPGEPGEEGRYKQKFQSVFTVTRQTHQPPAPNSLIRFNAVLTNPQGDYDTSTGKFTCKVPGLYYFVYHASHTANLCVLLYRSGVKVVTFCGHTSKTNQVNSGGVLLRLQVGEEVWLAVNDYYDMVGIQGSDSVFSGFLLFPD

B1: Agly hAKH3 IgG4P/IgG1 (antibody, V domains shown)
VH: EVQLVQSGAEVKKPGASVKVSCKASGYTFTTFPIEWVRQAPGQGLEWMGNFHPYNDDTKYNEKFKGRVTLTADKSTSTAYMELSRLRSEDTAVYYCARRGKLPFDSWGQGTTVTVSS
VL: DIQMTQSPSSLSASVGDRVTISCRASQDISNYLNWYQQKPGKVPKLLIYFTSRLRSGVPSRFSGSGSGTDYTLTISSLQPEDVATYYCQQDRKLPWTFGQGTKLEIK
Question: For B1, which “IC50, inhibition of CD40L+ Jurkat (D1.1) T cell stimulation of primary human B cells (ICAM-1/CD54 up-regulation, flow cytometry), five normal donors” value [1] is on record?
Answer: 11 ng/mL and 0.07 nM

Question: What about the EC50 [2] of the same binder?
Answer: 0.5 nM

B2: Exemplary Anti-CD40 Antibody 1 (antibody, human IgG4 S228P, kappa)
heavy: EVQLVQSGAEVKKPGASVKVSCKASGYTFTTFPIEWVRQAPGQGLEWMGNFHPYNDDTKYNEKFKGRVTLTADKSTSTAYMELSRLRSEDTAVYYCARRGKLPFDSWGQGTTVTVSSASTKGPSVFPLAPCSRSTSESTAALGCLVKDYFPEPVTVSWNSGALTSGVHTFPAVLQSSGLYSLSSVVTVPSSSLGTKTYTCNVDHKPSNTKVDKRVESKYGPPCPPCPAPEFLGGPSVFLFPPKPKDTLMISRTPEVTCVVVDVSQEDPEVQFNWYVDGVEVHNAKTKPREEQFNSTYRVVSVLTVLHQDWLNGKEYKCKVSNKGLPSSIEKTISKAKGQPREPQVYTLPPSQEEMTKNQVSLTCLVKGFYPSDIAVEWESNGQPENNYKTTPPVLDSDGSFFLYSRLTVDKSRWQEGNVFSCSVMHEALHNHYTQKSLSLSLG
light: DIQMTQSPSSLSASVGDRVTISCRASQDISNYLNWYQQKPGKVPKLLIYFTSRLRSGVPSRFSGSGSGTDYTLTISSLQPEDVATYYCQQDRKLPWTFGQGTKLEIKRTVAAPSVFIFPPSDEQLKSGTASVVCLLNNFYPREAKVQWKVDNALQSGNSQESVTEQDSKDSTYSLSSTLTLSKADYEKHKVYACEVTHQGLSSPVTKSFNRGEC
modifications: Alexa647 conjugate in some whole-blood assays; N-linked glycan on the heavy chain; neither is carried by the letters.
notes: Humanized IgG4/kappa with S228P (Kabat); also called hAKH3 IgG4P; AKH3 IgG4P; copies: 2 + 2
Question: Which results are given for B2?
Answer: binding result [3]: no binding; binding result [4]: no binding; binding result [5]: binds; fold reduction of binding against WT IgG1 (chAKH3 IgG1) [6]: ~200 fold; fold reduction of binding against WT IgG1 (chAKH3 IgG1) [7]: ~5 fold; fold reduction of binding against WT IgG1 (chAKH3 IgG1) [8]: ~5 fold; fold reduction of binding against WT IgG1 (chAKH3 IgG1) [9]: ~150 fold
